Consider 1 substance from patent publication US7052851B2, “Crystal structure of cysteine protease” (Novartis International AG, priority 1996, dated 2006).

The star is where a group is joined. CH2F = FC*

The experiment deals with T1, recombinant human CPP32 (Homo sapiens, UniProt P42574).
T1 construct: β-CHAIN; 29; 175; CPP32 P17 SUBUNIT; α-CHAIN; 176; 277; CPP32 P12 SUBUNIT; made in house; host or cells: E. coli BL21 (DE3), pET21b
T1 sequence (P42574 29-175): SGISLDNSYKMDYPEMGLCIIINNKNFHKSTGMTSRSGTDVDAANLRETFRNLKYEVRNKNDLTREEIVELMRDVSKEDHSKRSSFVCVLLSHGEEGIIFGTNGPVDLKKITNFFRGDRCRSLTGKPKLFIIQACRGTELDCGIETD
T1 sequence (P42574 176-277): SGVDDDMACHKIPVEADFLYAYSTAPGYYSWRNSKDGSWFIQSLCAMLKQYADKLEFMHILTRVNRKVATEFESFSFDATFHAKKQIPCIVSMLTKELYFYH
Put plainly: CPP32 protease activity inhibition (enzyme treated with irreversible inhibitor before crystallization). It is filed as biochemical. The note with it: slight excess (1.6×) of inhibitor added to purified recombinant human CPP32 (C-terminal 6His) in 50 mM DTT, 50 mM HEPES, pH 8.0, on ice. From the text: As defined herein, purified CPP32 is more than 95% homogeneous. Protein homogeneity is determinable according to analytical methods well-known in the art, e.g. sequence analysis, electrophoresis, spectroscopic or chromatographic techniques. The purified protein is enzymatically active. Appropriate assays for determining CPP32 protease activity towards a suitable substrate, e.g. a natural substrate, such as PARP, or a synthetic substrate which is cleavable by CPP32, is known in the art. Advantagously, a peptide, such as aminomethylcoumarin, is used as synthetic substrate. […]
Recombinant human CPP32 expressed in a soluble form in E. coli (E. coli BL21) is purified to homogeneity by Ni^2+ chromatography using an imidazole gradient (60 mM-1 M). […] The purified CPP32 protein is more than 95% homogeneous, as determined by SDS-PAGE (10–20% gradient gel), reverse phase high performance liquid chromatography (RP-HPLC), MALDI-TOF mass spectrometry, N-terminal sequence and amino acid analysis. […] The purified CPP32 protein which is a (p17p12)2 tetramer in solution, as analyzed by dynamic light scattering, compares to the published CPP32 amino acid sequence (Fernandes-Alnemri, T., Litwack, G. & Alnemri, E. S. (1994). J. Biol. Chem. 269, 30761–30764, FIG. 1, p.30762) as follows: […]

In the case of “Ac-Asp-Val-Ala-Asp-fluoromethylketone (Ac-DVAD-CH2F; SMILES CC(=O)N[C@@H](CC(=O)O)C(=O)N[C@H](C(=O)N[C@@H](C)C(=O)N[C@@H](CC(=O)O)C(=O)CF)C(C)C)”, the enzyme inhibited was 99.9%.
